Assay results from US20180311311A1 (Pieris, published 2018).
Substitutions are numbered along the chain they refer to.

How the values were obtained:
[1] = target: T1, HSA (Sigma Life sciences, A1653) (human, UniProt P02768 25-609); experiment: SPR (Biacore T200), hNGAL immobilized on CM5 chip, analyte in solution
T1 construct: Printed only as the abbreviation HSA
Procedure: (§1) The reference channels were treated with EDC/NHS following ethanolamine (blank immobilization). Dilutions of Hepcidin-25 (Peptallova), Fe-enterobactin (Genaxxon Bioscience, S4035.0001), ß-defensin (Sigma Aldrich, D9565), VEGF₈₋₁₀₉ (Pieris, truncated VEGF) and HSA (Sigma Life sciences, A1653) in HBS-EP+ buffer (GE Healthcare, BR-1006-69) were applied to the prepared chip surfaces. The following parameters were used for the binding assay: contact time 60 s, dissociation time 600 s, flow rate 30 μL/min. All measurements were performed on a Biacore T200 instrument (GE Healthcare) at 25° C. […] Prior to the protein measurements three startup cycles were performed for conditioning purposes. Data were evaluated with Biacore T200 Evaluation software (V 1.0). Double referencing was used. The 1:1 Binding model was used to fit the raw data. No binding to the reference channel was detected for all of the targets. […] The bacterial siderophor Fe-enterobactin was selected for this analysis as it constitutes one of the natural ligands of the lipocalin that the lipocalin mutein was derived from. […] HSA and VEGF were used as example of non-related proteins. The hNGAL lipocalin, immobilized in an identical fashion on a CM5 chip compared to the lipocalin mutein was used as positive control for the Fe-enterobactin analyte. As described in the literature, the hNGAL lipocalin bound Fe-enterobactin with subnanomolar affinity, whereas none of the other analytes including hepcidin were bound.

Hepcidin-25 [2] = target: T2, Hepcidin-25 (human); experiment: as above
T2 construct: also called Hepc25; mature form of human hepcidin
T2 peptide: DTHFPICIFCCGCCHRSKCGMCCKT
Procedure: as §1

[3] = target: T3, VEGF8-109 (Pieris, truncated VEGF) (UniProt P15692 214-315); experiment: as above
T3 construct: range 8-109; By custom it is counted on mature VEGF-A, not on the precursor
T3 sequence (looked up): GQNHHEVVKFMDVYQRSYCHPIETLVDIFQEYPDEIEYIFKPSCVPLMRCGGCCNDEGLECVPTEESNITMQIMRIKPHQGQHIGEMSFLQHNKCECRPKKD
Procedure: as §1

[4] = target: T4, ß-defensin (Sigma Aldrich, D9565) (UniProt P60022 33-68); experiment: as above
T4 construct: also called mammalian antimicrobial 36 amino acid peptide ß-defensin
T4 peptide (looked up): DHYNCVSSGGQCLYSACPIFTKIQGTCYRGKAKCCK
Procedure: as §1

[5] = target: T5, Hepcidin-25 containing a C-terminal biotin group (human, C-terminal biotin group); experiment: solution competition ECL assay: 25 pM Hepcidin-25-C-bio pre-incubated with the conjugate, remaining free Hepcidin-25-C-bio captured on plate-coated antibody 12B9; STDV 14 pM, mean of n=5
T5 construct: also called Hepcidin-25-C-bio; biotinylated hepcidin
T5 peptide: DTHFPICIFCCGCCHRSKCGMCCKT
Procedure: (§2) The binding affinity of the hNGAL mutein having the sequence of SEQ ID NO: 2 was compared to the binding affinity of the hNGAL mutein having the sequence of SEQ ID NO: 1 linked to PEG12, PEG20, PEG30 or PEG40 in a solution competition electrochemiluminescence (ECL) assay. A defined molar concentration of Hepcidin-25 containing a C-terminal biotin group (25 pM, Hepcidin-25-C-bio) was incubated with different concentrations of the lipocalin muteins for 30 min. at room temperature. The solution was then transferred to an ECL plate coated with the human hepcidin specific monoclonal antibody 12B9 as described herein (and disclosed in WO2008/097461) to measure the remaining concentration of free Hepcidin-25-C-bio in the solution. 12B9-bound Hepcidin-25-C-bio was detected via the Streptavidin sulfotag detection reagent on the Meso-Scale ECL platform and the concentration determined via a Hepcidin-25-C-bio standard curve. […] The assay, for example, was able to distinguish the binding affinity of one lipocalin mutein (SEQ ID NO: 2) from the binding affinity of another lipocalin mutein (SEQ ID NO: 3). Furthermore, it allowed a direct comparison of different high affinities of the lipocalin muteins as well as conjugates having PEG chains of different length.

[6] = target: T5, Hepcidin-25 containing a C-terminal …; experiment: solution competition ECL assay: 25 pM Hepcidin-25-C-bio pre-incubated with the conjugate, remaining free Hepcidin-25-C-bio captured on plate-coated antibody 12B9; STDV 10 pM, mean of n=5
Procedure: as §2

Cynomolgus hepcidin 25 [7] = target: T6, Cynomolgus hepcidin 25 (Cynomolgus monkey, UniProt A7XEI3 60-84, not fully specified); experiment: surface plasmon resonance
T6 construct: mature; also called Cynomolgous hepcidin 25
T6 peptide: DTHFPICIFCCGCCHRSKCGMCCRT

[8] = target: T5, Hepcidin-25 containing a C-terminal …; experiment: solution competition ECL assay: 25 pM Hepcidin-25-C-bio pre-incubated with the conjugate, remaining free Hepcidin-25-C-bio captured on plate-coated antibody 12B9; STDV 11 pM, mean of n=5
Procedure: as §2

Hepcidin-25 [9] = target: T2, Hepcidin-25; experiment: surface plasmon resonance (Biacore T200, 25 °C), mutein amine-coupled to a CM5 chip, Hepcidin-25 as analyte, 1:1 binding model; N=6
[10] = target: T1, HSA (Sigma Life sciences, A1653); experiment: SPR (Biacore T200), mutein immobilized on CM5 chip, analyte in solution
Procedure: (§3) The affinity and binding specificity of a lipocalin mutein was determined in a kinetic assay using surface plasmon resonance. The hepcidin-specific lipocalin mutein having the sequence of SEQ ID NO: 1 and the hNGAL lipocalin having the sequence of SEQ ID NO: 4 were immobilized to a level of 750-1100 resonance units (RU) on a CM5 sensor chip (GE Healthcare, BR-1005-30) using an amine coupling kit (GE Healthcare, BR-1000-50). Residual activated groups were saturated with ethanolamine. The reference channels were treated with EDC/NHS following ethanolamine (blank immobilization). Dilutions of Hepcidin-25 (Peptallova), Fe-enterobactin (Genaxxon Bioscience, S4035.0001), ß-defensin (Sigma Aldrich, D9565), VEGF₈₋₁₀₉ (Pieris, truncated VEGF) and HSA (Sigma Life sciences, A1653) in HBS-EP+ buffer (GE Healthcare, BR-1006-69) were applied to the prepared chip surfaces. The following parameters were used for the binding assay: contact time 60 s, dissociation time 600 s, flow rate 30 μL/min. All measurements were performed on a Biacore T200 instrument (GE Healthcare) at 25° C. […] Prior to the protein measurements three startup cycles were performed for conditioning purposes. Data were evaluated with Biacore T200 Evaluation software (V 1.0). Double referencing was used. The 1:1 Binding model was used to fit the raw data. No binding to the reference channel was detected for all of the targets. […] The bacterial siderophor Fe-enterobactin was selected for this analysis as it constitutes one of the natural ligands of the lipocalin that the lipocalin mutein was derived from.

[11] = target: T3, VEGF8-109 (Pieris, truncated VEGF); experiment: as above
Procedure: as §3

[12] = target: T4, ß-defensin (Sigma Aldrich, D9565); experiment: as above
Procedure: as §3

Hepcidin-25 [13] = target: T2, Hepcidin-25; experiment: surface plasmon resonance (Biacore), Hepcidin-25 as analyte, tested side by side with cynomolgus hepcidin 25 in the same assay format; N=3
Cynomolgus hepcidin 25 [14] = target: T6, Cynomolgus hepcidin 25; experiment: surface plasmon resonance (Biacore), cynomolgus hepcidin 25 as analyte, tested side by side with Hepcidin-25 in the same assay format; N=3
[15] = target: T5, Hepcidin-25 containing a C-terminal …; experiment: solution competition ECL assay: 25 pM Hepcidin-25-C-bio pre-incubated with the conjugate, remaining free Hepcidin-25-C-bio captured on plate-coated antibody 12B9; STDV 6 pM, mean of n=6
Procedure: as §2

[16] = target: T5, Hepcidin-25 containing a C-terminal …; experiment: solution competition ECL assay: 25 pM Hepcidin-25-C-bio pre-incubated with the mutein, remaining free Hepcidin-25-C-bio captured on plate-coated antibody 12B9; STDV 23 pM, mean of n=6
Procedure: as §2

T1 sequence (P02768 25-609): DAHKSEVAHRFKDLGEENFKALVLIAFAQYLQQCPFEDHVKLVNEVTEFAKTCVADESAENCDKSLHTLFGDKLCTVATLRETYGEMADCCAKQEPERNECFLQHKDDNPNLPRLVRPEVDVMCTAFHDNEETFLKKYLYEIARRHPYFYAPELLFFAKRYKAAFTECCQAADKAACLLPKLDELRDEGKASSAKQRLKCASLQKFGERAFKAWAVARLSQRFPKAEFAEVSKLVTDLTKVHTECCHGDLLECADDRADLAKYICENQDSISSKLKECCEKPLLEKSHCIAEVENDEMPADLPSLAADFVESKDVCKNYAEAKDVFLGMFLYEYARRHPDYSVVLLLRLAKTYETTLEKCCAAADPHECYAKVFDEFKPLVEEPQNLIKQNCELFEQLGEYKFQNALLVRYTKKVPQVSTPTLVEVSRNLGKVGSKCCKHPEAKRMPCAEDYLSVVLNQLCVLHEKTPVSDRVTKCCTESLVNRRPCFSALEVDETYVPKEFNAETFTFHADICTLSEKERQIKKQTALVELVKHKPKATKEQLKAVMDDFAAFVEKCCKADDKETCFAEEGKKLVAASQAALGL

B1: hNGAL lipocalin having the sequence of SEQ ID NO: 4 (other)
chain: QDSTSDLIPAPPLSKVPLQQNFQDNQFHGKWYVVGLAGNAILREDKDPQKMYATIYELKEDKSYNVTSVLFRKKKCDYWIRTFVPGSQPGEFTLGNIKSYPGLTSYLVRVVSTNYNQHAMVFFKKVSQNREYFKITLYGRTKELTSELKENFIRFSKSLGLPENHIVFPVPIDQCIDG
notes: also called human neutrophil gelatinase-associated lipocalin; lipocalin 2
- binding result [1]: no binding
- binding result (Hepcidin-25 [2]): no binding
- binding result [3]: no binding
- binding result [4]: no binding

B2: hNGAL mutein having the sequence of SEQ ID NO: 1 linked to PEG12 (designed binder)
chain: QDSTSDLIPAPPLSKVPLQQNFQDNQFHGKWYVVGLAGNEVLREDKDPMKMWATIYELKEDKSYNVTIVMPLAEKCEYLFQTFVPGCQPGEFTLGGIKSGPGRTSGLVRVVSTNYNQHAMVFFKVVWQNREVFWVTLYGRTKELTSELKENFIRFSKSLGLPENHIVFPVPIDQCIDG
modifications: linear PEG12 (PEG-maleimide) on the free Cys at position 87
notes: also called PEG12 conjugate
- IC50 [5]: 0.048 nM

B3: hNGAL mutein having the sequence of SEQ ID NO: 1 linked to PEG40 (designed binder)
chain: B2 chain
modifications: branched PEG40 (PEG-maleimide) on the free Cys at position 87
notes: also called PEG40 conjugate
- IC50 [6]: 0.054 nM
- Kd (Cynomolgus hepcidin 25 [7]): 0.066 nM
- koff (Cynomolgus hepcidin 25 [7]): 0.000245 s⁻¹
- kon (Cynomolgus hepcidin 25 [7]): 3.74e+06 M⁻¹ s⁻¹

B4: hNGAL mutein having the sequence of SEQ ID NO: 1 linked to PEG20 (designed binder)
chain: B2 chain
modifications: linear PEG20 (PEG-maleimide) on the free Cys at position 87
notes: also called PEG20 conjugate
- IC50 [8]: 0.047 nM

B5: hepcidin-specific lipocalin mutein (hNGAL mutein) having the sequence of SEQ ID NO: 1 (designed binder)
chain: B2 chain
notes: also called the lipocalin mutein; hNGAL mutein having a free cysteine residue at amino acid position 87
- Kd (Hepcidin-25 [9]): 0.07 nM
- koff (Hepcidin-25 [9]): 0.0002 s⁻¹
- kon (Hepcidin-25 [9]): 3.8e+06 M⁻¹ s⁻¹
- binding result [10]: no binding
- binding result [11]: no binding
- binding result [12]: no binding
- Kd (Hepcidin-25 [13]): 0.1 nM
- Kd (Cynomolgus hepcidin 25 [14]): 0.07 nM

B6: hNGAL mutein having the sequence of SEQ ID NO: 1 linked to PEG30 (designed binder)
chain: B2 chain
modifications: linear PEG30 (PEG-maleimide) on the free Cys at position 87
notes: also called PEG30 conjugate; lipocalin-mutein-PEG30 conjugate
- IC50 [15]: 0.058 nM
- Kd (Cynomolgus hepcidin 25 [7]): 0.066 nM

B7: hNGAL mutein having the sequence of SEQ ID NO: 2 (designed binder)
chain: B2 chain with C87S
notes: Non-PEGylated mutein with serine at position 87
- IC50 [16]: 0.056 nM
